Measurements reported in paper PMC9482650, “Quantitative fragmentomics allow affinity mapping of interactomes” (Nature Communications, 2022).

Tests used:
Assay in all cases: holdup assay
Parameters in all cases: key: below the threshold = too weak to quantify, mostly under pKd 3.1 to 4
Conditions in all cases: plain residues with an end cap or a label only (N-terminal biotin on a linker: ado-ado)
AHNAK1, Q09666 = target: AHNAK1, Q09666
APBA1_1, Q02410 = target: T1, APBA1_1, Q02410
T1 sequence (Q02410 651-752, limits assumed, looked up): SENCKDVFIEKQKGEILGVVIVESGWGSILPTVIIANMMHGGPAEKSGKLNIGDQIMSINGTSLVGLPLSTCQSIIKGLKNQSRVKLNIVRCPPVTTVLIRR

APBA3_1, O96018 = target: T2, APBA3_1, O96018
T2 sequence (O96018 389-490, limits assumed, looked up): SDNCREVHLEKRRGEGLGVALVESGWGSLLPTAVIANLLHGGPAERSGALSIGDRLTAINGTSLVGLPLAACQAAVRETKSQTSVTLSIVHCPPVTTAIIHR

ARHGAP21, Q5T5U3 = target: T3, ARHGAP21, Q5T5U3
T3 sequence (Q5T5U3 45-169, limits assumed, looked up): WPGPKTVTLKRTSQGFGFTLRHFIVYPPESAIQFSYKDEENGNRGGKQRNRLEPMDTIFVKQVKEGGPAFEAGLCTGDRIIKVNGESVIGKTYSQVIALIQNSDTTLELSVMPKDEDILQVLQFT

DLG2_2, Q15700 = target: DLG2_2, Q15700
Chain of DLG2_2, Q15700 (Q15700 189-283): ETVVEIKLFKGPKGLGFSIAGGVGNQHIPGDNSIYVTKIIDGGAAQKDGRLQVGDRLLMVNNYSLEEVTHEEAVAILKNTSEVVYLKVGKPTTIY

DLG3_3, Q92796 = target: T4, DLG3_3, Q92796
T4 sequence (Q92796 374-475, limits assumed, looked up): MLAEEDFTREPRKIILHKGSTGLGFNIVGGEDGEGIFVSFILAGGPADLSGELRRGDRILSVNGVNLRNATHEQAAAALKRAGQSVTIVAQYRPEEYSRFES

FRMPD1, Q5SYB0 = target: T5, FRMPD1, Q5SYB0
T5 sequence (Q5SYB0 52-145, limits assumed, looked up): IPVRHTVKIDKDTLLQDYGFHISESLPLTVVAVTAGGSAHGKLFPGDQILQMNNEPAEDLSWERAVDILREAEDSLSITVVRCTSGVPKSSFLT

FRMPD2_1, Q68DX3 = target: FRMPD2_1, Q68DX3
Chain of FRMPD2_1, Q68DX3 (Q68DX3 770-861): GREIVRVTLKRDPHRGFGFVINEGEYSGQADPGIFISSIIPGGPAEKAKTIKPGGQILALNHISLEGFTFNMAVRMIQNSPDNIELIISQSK

GRID2IP_1, A4D2P6 = target: GRID2IP_1, A4D2P6
Chain of GRID2IP_1, A4D2P6 (A4D2P6 1-87): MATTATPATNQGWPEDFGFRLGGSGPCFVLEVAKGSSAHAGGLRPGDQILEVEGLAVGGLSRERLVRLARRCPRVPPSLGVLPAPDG

Inadl_2, Q8NI35 = target: Inadl_2, Q8NI35
Chain of Inadl_2, Q8NI35 (Q8NI35 238-335): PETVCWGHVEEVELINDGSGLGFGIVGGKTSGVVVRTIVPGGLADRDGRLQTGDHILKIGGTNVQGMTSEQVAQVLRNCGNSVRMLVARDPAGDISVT

Inadl_4, Q8NI35 = target: Inadl_4, Q8NI35
Chain of Inadl_4, Q8NI35 (Q8NI35 547-651): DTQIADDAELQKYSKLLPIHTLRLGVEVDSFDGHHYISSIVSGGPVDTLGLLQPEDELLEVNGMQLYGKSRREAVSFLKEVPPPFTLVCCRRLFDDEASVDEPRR

Inadl_8, Q8NI35 = target: Inadl_8, Q8NI35
Chain of Inadl_8, Q8NI35 (Q8NI35 1425-1530): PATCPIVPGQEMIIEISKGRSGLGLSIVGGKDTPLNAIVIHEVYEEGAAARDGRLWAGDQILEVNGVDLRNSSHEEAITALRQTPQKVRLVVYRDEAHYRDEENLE

LDB3, O75112 = target: LDB3, O75112
Chain of LDB3, O75112 (O75112 1-94): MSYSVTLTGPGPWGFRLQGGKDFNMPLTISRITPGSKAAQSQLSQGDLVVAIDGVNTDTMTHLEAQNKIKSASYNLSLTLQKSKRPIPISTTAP

LIN7C, Q9NUP9 = target: T6, LIN7C, Q9NUP9
T6 sequence (Q9NUP9 88-185, limits assumed, looked up): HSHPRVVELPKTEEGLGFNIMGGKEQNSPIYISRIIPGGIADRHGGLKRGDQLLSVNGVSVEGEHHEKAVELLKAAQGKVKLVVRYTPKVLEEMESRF

LNX2_3, Q8N448 = target: T7, LNX2_3, Q8N448
T7 sequence (Q8N448 463-564, limits assumed, looked up): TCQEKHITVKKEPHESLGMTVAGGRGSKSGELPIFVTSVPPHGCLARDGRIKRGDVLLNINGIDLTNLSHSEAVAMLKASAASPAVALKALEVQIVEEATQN

LRRC7, Q96NW7 = target: T8, LRRC7, Q96NW7
T8 sequence (Q96NW7 1440-1537, limits assumed, looked up): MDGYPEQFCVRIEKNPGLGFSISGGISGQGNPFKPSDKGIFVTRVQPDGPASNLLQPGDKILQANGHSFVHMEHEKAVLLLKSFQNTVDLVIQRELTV

MAGI2_3, Q86UL8 = target: MAGI2_3, Q86UL8
Chain of MAGI2_3, Q86UL8 (Q86UL8 600-682): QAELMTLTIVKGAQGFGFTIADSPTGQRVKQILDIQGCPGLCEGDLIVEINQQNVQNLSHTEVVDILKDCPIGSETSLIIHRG

MAGI2_4, Q86UL8 = target: MAGI2_4, Q86UL8
Chain of MAGI2_4, Q86UL8 (Q86UL8 772-865): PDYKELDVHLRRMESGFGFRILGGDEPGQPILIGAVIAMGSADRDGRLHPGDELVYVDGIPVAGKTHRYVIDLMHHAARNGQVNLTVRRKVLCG

MAGI3_2, Q5TCQ9 = target: MAGI3_2, Q5TCQ9
Chain of MAGI3_2, Q5TCQ9 (Q5TCQ9 398-503): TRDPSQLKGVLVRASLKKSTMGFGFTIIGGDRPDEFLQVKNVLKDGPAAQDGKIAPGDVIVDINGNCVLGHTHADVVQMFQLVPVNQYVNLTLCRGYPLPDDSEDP

NHERF4_1, Q86UT5-2 = target: NHERF4_1, Q86UT5-2
Chain of NHERF4_1, Q86UT5-2 (Q86UT5 other isoform, or with tags, fused parts or gaps): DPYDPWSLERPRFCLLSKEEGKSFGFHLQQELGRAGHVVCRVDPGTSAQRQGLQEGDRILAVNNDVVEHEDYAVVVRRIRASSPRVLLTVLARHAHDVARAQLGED

NHERF4_2, Q86UT5 = target: NHERF4_2, Q86UT5
Chain of NHERF4_2, Q86UT5 (Q86UT5 220-308): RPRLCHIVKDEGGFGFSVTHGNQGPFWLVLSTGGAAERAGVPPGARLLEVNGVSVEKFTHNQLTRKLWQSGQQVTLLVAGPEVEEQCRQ

PARD3_3, Q8TEW0 = target: PARD3_3, Q8TEW0
Chain of PARD3_3, Q8TEW0 (Q8TEW0 582-685): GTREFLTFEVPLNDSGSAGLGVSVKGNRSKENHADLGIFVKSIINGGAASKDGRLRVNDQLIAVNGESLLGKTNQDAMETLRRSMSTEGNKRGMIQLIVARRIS

PDLIM1, O00151 = target: PDLIM1, O00151
Chain of PDLIM1, O00151 (O00151 1-87): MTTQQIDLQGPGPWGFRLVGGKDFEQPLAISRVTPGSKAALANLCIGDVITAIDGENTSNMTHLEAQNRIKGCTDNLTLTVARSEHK

PTPN3, P26045 = target: PTPN3, P26045
Chain of PTPN3, P26045 (P26045 505-587): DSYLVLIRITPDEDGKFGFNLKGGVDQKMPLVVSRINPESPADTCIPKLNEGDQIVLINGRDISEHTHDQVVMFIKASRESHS

RAPGEF6, Q8TEU7 = target: T9, RAPGEF6, Q8TEU7
T9 sequence (Q8TEU7 525-625, limits assumed, looked up): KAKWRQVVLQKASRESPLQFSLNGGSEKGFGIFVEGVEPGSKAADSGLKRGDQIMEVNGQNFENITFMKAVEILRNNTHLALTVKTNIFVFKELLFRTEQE

SHANK1, Q9Y566 = target: T10, SHANK1, Q9Y566
T10 sequence (Q9Y566 658-767, limits assumed, looked up): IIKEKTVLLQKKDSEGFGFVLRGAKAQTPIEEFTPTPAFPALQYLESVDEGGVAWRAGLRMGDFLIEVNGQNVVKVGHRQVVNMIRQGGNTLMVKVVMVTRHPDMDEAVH

TJP3_3, O95049 = target: T11, TJP3_3, O95049
T11 sequence (O95049 375-456, limits assumed, looked up): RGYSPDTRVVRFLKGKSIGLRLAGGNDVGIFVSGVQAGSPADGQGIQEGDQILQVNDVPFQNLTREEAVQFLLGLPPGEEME

Chain of AHNAK1, Q09666 (Q09666 4-100): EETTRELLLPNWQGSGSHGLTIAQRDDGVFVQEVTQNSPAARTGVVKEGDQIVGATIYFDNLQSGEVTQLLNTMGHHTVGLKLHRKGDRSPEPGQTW

pKd (AHNAK1, Q09666) | pKd (APBA1_1, Q02410) | pKd (APBA3_1, O96018) | pKd (ARHGAP21, Q5T5U3) | pKd (DLG2_2, Q15700) | pKd (DLG3_3, Q92796) | pKd (FRMPD1, Q5SYB0) | pKd (FRMPD2_1, Q68DX3) | pKd (GRID2IP_1, A4D2P6) | pKd (Inadl_2, Q8NI35) | pKd (Inadl_4, Q8NI35) | pKd (Inadl_8, Q8NI35) | pKd (LDB3, O75112) | pKd (LIN7C, Q9NUP9) | pKd (LNX2_3, Q8N448) | pKd (LRRC7, Q96NW7) | pKd (MAGI2_3, Q86UL8) | pKd (MAGI2_4, Q86UL8) | pKd (MAGI3_2, Q5TCQ9) | pKd (NHERF4_1, Q86UT5-2) | Binder | other results
below the threshold | below the threshold | below the threshold | below the threshold | below the threshold | below the threshold | below the threshold | below the threshold | below the threshold | below the threshold | below the threshold | below the threshold | below the threshold | below the threshold | below the threshold | below the threshold | below the threshold | below the threshold | below the threshold | below the threshold | NHSSSPETTA [TRMT13, Q9NUP7] | pKd (NHERF4_2, Q86UT5): below the threshold; pKd (PARD3_3, Q8TEW0): below the threshold; pKd (PDLIM1, O00151): below the threshold; pKd (PTPN3, P26045): 3.88; pKd (RAPGEF6, Q8TEU7): below the threshold; pKd (SHANK1, Q9Y566): below the threshold; pKd (TJP3_3, O95049): below the threshold
below the threshold | below the threshold | below the threshold | 4.15 | 4.2 | 4.54 | below the threshold | 3.59 | 3.7 | below the threshold | 3.49 | 3.86 | below the threshold | 4.51 | 3.62 | 4.08 | 4.06 | 3.68 | 4.27 | below the threshold | EVEEFPETSV [TRPV3, Q8NET8] | pKd (NHERF4_2, Q86UT5): below the threshold; pKd (PARD3_3, Q8TEW0): 3.85; pKd (PDLIM1, O00151): 3.6; pKd (PTPN3, P26045): 4.95; pKd (RAPGEF6, Q8TEU7): 3.64; pKd (SHANK1, Q9Y566): 3.94; pKd (TJP3_3, O95049): 3.57

Second part, the binder before the results:

Binder | pKd (AHNAK1, Q09666) | pKd (APBA1_1, Q02410) | pKd (APBA3_1, O96018) | pKd (ARHGAP21, Q5T5U3) | pKd (DLG2_2, Q15700) | pKd (DLG3_3, Q92796) | pKd (FRMPD1, Q5SYB0) | pKd (FRMPD2_1, Q68DX3) | pKd (GRID2IP_1, A4D2P6) | pKd (Inadl_2, Q8NI35) | pKd (Inadl_4, Q8NI35) | pKd (Inadl_8, Q8NI35) | pKd (LDB3, O75112) | pKd (LIN7C, Q9NUP9) | pKd (LNX2_3, Q8N448) | pKd (LRRC7, Q96NW7) | pKd (MAGI2_3, Q86UL8) | pKd (MAGI2_4, Q86UL8) | pKd (MAGI3_2, Q5TCQ9) | pKd (NHERF4_1, Q86UT5-2) | other results
PDGQCTVTEV [RNF146, Q9NTX7] | below the threshold | below the threshold | below the threshold | below the threshold | 4.9 | below the threshold | below the threshold | below the threshold | below the threshold | below the threshold | below the threshold | 4.13 | below the threshold | below the threshold | below the threshold | 3.89 | 3.94 | 4.38 | 4.21 | 3.89 | pKd (NHERF4_2, Q86UT5): 3.59; pKd (PARD3_3, Q8TEW0): below the threshold; pKd (PDLIM1, O00151): below the threshold; pKd (PTPN3, P26045): 4.99; pKd (RAPGEF6, Q8TEU7): below the threshold; pKd (SHANK1, Q9Y566): below the threshold; pKd (TJP3_3, O95049): below the threshold
PAPSSGKDYV [CLDN1, O95832] | below the threshold | below the threshold | below the threshold | below the threshold | below the threshold | below the threshold | below the threshold | below the threshold | below the threshold | below the threshold | below the threshold | 3.92 | below the threshold | below the threshold | below the threshold | below the threshold | below the threshold | 3.54 | below the threshold | 3.62 | pKd (NHERF4_2, Q86UT5): below the threshold; pKd (PARD3_3, Q8TEW0): below the threshold; pKd (PDLIM1, O00151): below the threshold; pKd (PTPN3, P26045): below the threshold; pKd (RAPGEF6, Q8TEU7): below the threshold; pKd (SHANK1, Q9Y566): below the threshold; pKd (TJP3_3, O95049): 3.55
SAKVRTVTSV [RASL11B, Q9BPW5] | below the threshold | below the threshold | below the threshold | below the threshold | 4.79 | 4.89 | below the threshold | below the threshold | below the threshold | below the threshold | below the threshold | 4.43 | below the threshold | below the threshold | below the threshold | below the threshold | 4.25 | 4.19 | 5.74 | 3.77 | pKd (NHERF4_2, Q86UT5): below the threshold; pKd (PARD3_3, Q8TEW0): below the threshold; pKd (PDLIM1, O00151): below the threshold; pKd (PTPN3, P26045): 4.6; pKd (RAPGEF6, Q8TEU7): below the threshold; pKd (SHANK1, Q9Y566): below the threshold; pKd (TJP3_3, O95049): below the threshold
